Data published in patent US20220403332A1, “SELF-ORGANIZING NEURAL ECTODERMAL LINEAGE CELLULAR STRUCTURES, AND COMPOSITIONS AND METHODS RELATING THERETO” (THE ROCKEFELLER UNIVERSITY, priority 2019, published 2022).

B1: BMP4: bone morphogenetic protein (BMP) used as morphogen to drive neuruloid formation (protein, UniProt P12644 293-408, looked up)
Bone morphogenetic protein 4: SPKHHSQRARKKNKNCRRHSLYVDFSDVGWNDWIVAPPGYQAFYCHGDCPFPLADHLNSTNHAIVQTLVNSVNSSIPKACCVPTELSAISMLYLDEYDKVVLKNYQEMVVEGCGCR

Assays:
Type in all cases: cell-based, human
day 7 neuruloid = experiment: neuruloid formation with blebbistatin, day 7 immunofluorescence; conditions: day 7 neuruloid treated with Blebbistatin 5 μM; stained for DAPI, N-CAD, PAX6, COL4 (FIG. 12E)
Text: FIG. 12—related to FIG. 6. (A) RUES2 and 56CAG background distribution within the main cell populations found in the neuruloid. All clusters are well represented in either background although 56CAG has a higher relative proportion of NC and placode cells. (B) Gene ontology analyses using DAVID (www.david.ncifcrf.gov) for NE- and NC-specific DEG between RUES2 and 56CAG. (C) Violin plots showing the distribution of normalized gene expression values for the genes in FIGS. 6B and 6C. (D) qPCR validation of the down-regulation of WNT/PCP and cytoskeleton-associated genes in the 56CAG neuruloid versus WT RUES2. (E) Representative image of a day 7 neuruloid treated with Blebbistatin (5 μM) and stained for DAPI, N-CAD, PAX6, and COL4. (Top) side view, (Bottom) top view.
In order to unravel the molecular mechanisms underlying the morphogenetic defect, single-cell RNA-seq data of neuruloids in WT and 56CAG background was explored. All major cell populations found in the WT neuruloid were also present in the 56CAG background, supporting the lack of influence on fate specification (FIG. 12A). […] Using Seurat to identify differentially expressed genes (DEG) between 56CAG and RUES2 cell lines, 499 misregulated genes specific to the NE (adjusted p-value ≤0.05 and a minimum percentage difference in cells expressing the gene ≥10%) and 663 specific for the NC population was found (FIG. 6E). […]

[1] = test system: 500 μm micropatterned colonies (hESCs, RUES2); experiment: neuruloid formation at different BMP4 concentrations, day 7 immunofluorescence; conditions: 500 μm colonies at day 7
Text: FIG. 2 depicts self-organization into neuruloids on micropatterns. (A) Schematic of the neuruloid differentiation protocol. (B) Immunofluorescence imaging of 80, 200 and 500 μm of day 7 micropatterned colonies. Samples were stained with DAPI (gray), PAX6 (green), and N-CAD (orange). (C) Immunofluorescence imaging of 500 μm of day 7 micropatterned colonies. Samples were stained with DAPI (gray), PAX6 (green), and COL4 (Collagen IV, orange). Side view of resliced z-stack around PAX6+ center region, colony edge region is also shown. (D) replicates with PAX6 (green) and SOX10 (red). (E) (Left) Immunofluorescence imaging of 500 μm micropatterned colonies at day 7 with different BMP4 concentrations: 0, 3, 13, and 50 ng/ml. Samples were stained with PAX6 (green), SOX10 (red) and cranial placode marker SIX1 (orange). (Right) Quantifications of SIX1 positive cell number. Data are mean±standard deviation. (F) (Top Left) Sketch of the ectodermal compartment at neurulation in vivo. (Top Right) Sketch of the neuruloid on micropattern. (Middle panel) Side view of the day 7 neuruloid with 3 ng/ml of BMP. Samples were stained with DAPI, PAX6, SOX10, SIX1, and non-neural ectoderm maker TFAP2A. Note that the TFAP2A+ also stain a few SOX10 and SIX1 positive cells. The non-neural ectoderm cells are only TFAP2A positive. (Bottom) Top view by multiple z from bottom to top. All scale bars represent 50 μm. […]

pSMAD1 = experiment: signaling dynamics time-course after BMP4 presentation (immunofluorescence, western blot)
Method: FIG. 4 depicts coupling of cell fate specification with a two-step morphogenesis mechanism during neuruloid formation. (A) (Top) time course immunofluorescence analysis of the neuruloid from day 3 to 4. Day 3 micropattern colonies were treated with BMP4 (3 ng/ml) for 1, 3, 5, 10, and 24 hours then stained with PAX6, pSMAD1, and TFAP2A. (Bottom Left) Western blot analysis of the micropattern colonies treated with BMP as above. Sample were stained with anti-pSMAD1/5 antibody. Anti-total SMAD antibody was used as a control. (Bottom Right) Quantification of the western blot analysis. (B) Time-lapse video microscopy imaging of neuruloid formation from day 3 to 6 using the live reporter line (PAX6::H2B-Citrin and SOX10::H2B-tdTomato). Images were recorded every 30 min from day 3 to the end of day 5 (66 hours total). Representative images are shown (a; first image of day 3, b; first image of day 4, c; first image of day 5, d; last image of day 5). […] (E) Associated quantification of PAX6, SIX1, and SOX10 area of the neuruloid treated with indicated drugs. […]
To uncover the molecular mechanisms of neuruloid self-organization, the signaling dynamics over a time-course after BMP4 presentation was followed. […] Only a few SOX10+ cells were detected during this initial phase, but a large expansion occurred in the SOX10 area concomitant with the PAX6 domain condensation starting at day 5. […]

| Molecule | central neuro-epithelium morphology (opened versus closed) (day 7 neuruloid) | overall spatial distribution of cell types ([1]; BMP4 0, 3, 13 and 50 ng/ml from day 3) | number of SIX1+ cells ([1]; BMP4 0, 3, 13 and 50 ng/ml from day 3 (FIG. 2E, 8H)) | TFAP2A induction (pSMAD1; 24 hours after BMP4 (3 ng/ml) presentation at day 3) | pSMAD1 signaling after BMP4 presentation (pSMAD1; day 3 colonies treated with BMP4 3 ng/ml for 1, 3, 5, 10, 24 hours (FIG. 4A)) |
| --- | --- | --- | --- | --- | --- |
| Cc1ccc2c(c1)C(=O)C1(O)CCN(c3ccccc3)C1=N2 (centres unmarked) [blebbistatin] | phenocopies the opened neuro-epithelium observed in HD and Htt−/− neuruloids | – | – | – | – |
| B1 | – | independent of BMP4 concentration | peaked at intermediate levels | induction of TFAP2A+ in the same domain | pulse of pSMAD1 restricted to the colony edge |
